Experimental data published in US20090017017A1 (SYMPHOGEN A S, published 2009).

T1: Rhesus D antigen (human, UniProt Q02161 2-417)
T1 construct: whole, on cells; Presented on RhD(+) erythrocytes; also called RhD; RhD antigen
T1 sequence (looked up): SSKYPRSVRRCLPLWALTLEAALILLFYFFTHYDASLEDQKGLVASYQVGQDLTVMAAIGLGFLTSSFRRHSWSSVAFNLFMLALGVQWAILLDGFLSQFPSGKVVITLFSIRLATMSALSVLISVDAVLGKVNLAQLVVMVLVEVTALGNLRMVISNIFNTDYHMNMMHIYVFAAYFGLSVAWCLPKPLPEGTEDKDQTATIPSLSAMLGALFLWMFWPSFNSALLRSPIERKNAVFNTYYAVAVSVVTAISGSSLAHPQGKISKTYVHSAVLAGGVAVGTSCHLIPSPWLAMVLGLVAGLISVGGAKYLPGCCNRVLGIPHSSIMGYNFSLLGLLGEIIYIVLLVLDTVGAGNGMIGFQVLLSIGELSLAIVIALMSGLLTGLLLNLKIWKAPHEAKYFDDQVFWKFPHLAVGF


target: T1, Rhesus D antigen; test: agglutination assay, Fab periplasmic extract on RhD(+)/RhD(-) RBC mix
Procedure: After each round of panning single colonies were picked for analysis of their binding properties to red blood cells in agglutination assays. Briefly, single colonies were inoculated into 2×YT/100 μg/mL carbenicillin/1% glucose and shaken overnight at 37° C. The next day, DeepWell plates were inoculated using 900 μl 2×YT/100 μg/mL carbenicillin/0.1% glucose and 10 μl overnight culture. The plates were shaken for two hours at 37° C., before Fab induction was performed with addition of 300 μl 2×YT/100 μg/mL carbenicillin/0.25 mM IPTG per well. The plate was shaken overnight at 30° C. The following day, the bacteria were pelleted by centrifugation (3200×g, 4° C., 10 minutes), and re-suspended in 100 μl of 0.8 M NaCl, 0.2×PBS, 8 mM EDTA, and incubated for 15 minutes on ice in order to perform a periplasmic extraction of the Fab fragments. The plate was transferred to −20° C. and finally the suspension was thawed and centrifugation was performed for 10 minutes at 4° C. and 3200×g. The periplasmic extract was used in ELISA assays for analysis of Fab content and in agglutination assays to evaluate the binding potential of the individual Fab fragments.
The agglutination assay was performed as follows: RhD(−) and RhD(+) RBC were mixed in a 1:1 ratio, and washed 3 times in PBS. After the final wash, the cell mix was re-suspended in 1% BSA in PBS at a density of 10% cells, 50 μl was added to each well of a 96-plate. Periplasmic extracts were added to the wells. As a positive control Rhesogamma P immunoglobulin (Aventis) was used according to the manufacturer's instructions. The plates were incubated for one hour at room temperature with gentle shaking. The cells were washed three times with PBS, before the secondary antibody was added (goat anti-human Fab/FITC conjugate, Sigma F5512) in a 1:100 dilution. The plates were left for agglutination for one hour at room temperature without shaking. Fab fragments positive in the agglutination assay was determined by visual inspection, and recorded by taking a picture. Quantization of the binding activity of the Fab fragments was performed by FACS analysis of the agglutination samples.

| binding result | Binder |
| --- | --- |
| binds | RhD200.164G10 (Fab, V domains shown, Tested as Fab in E. coli periplasmic extract (VH on human gamma 1 CH1, vector Em351)) VH: VQLVESGGGGVVQPGRSLRLSCAASGFTFSSYGMHWVRQAPGKGLEWVAVIWYDGSNKYYADSVKGRFTISRDNSKNTLYLQMNSLRAEDTAVYYCARESTLYSSSWYRRYYYYGMDVWGQGTTVTVSS VL: not shown |
| binds | RhD201.164H12 (Fab, V domains shown, Tested as Fab in E. coli periplasmic extract (VH on human gamma 1 CH1, vector Em351)) VH: QVQLVESGGGVVQPGRSLRLSCAASGFTFSSYAMHWVRQAPGKGLEWVAVISYDGSNKYYADSVKGRFTISRDNSKNTLYLQMNSLRAEDTAVYYCARESTLYSSSWYRRYYYYSMDVWGQGTTVTVSS VL: EIVLTQSPATLSVSPGERATLSCRASQSVTSNLAWYQQKPGQAPRLLIYGASTRATGVPARFSGSGSGTEFSLTISSLQSEDFAVYYCQQYNNWPPIFTFGPGTKLDIKR |
| binds | RhD192.119G06 (Fab, V domains shown, Tested as Fab in E. coli periplasmic extract (VH on human gamma 1 CH1, vector Em351)) VH: QVQLVESGGGLVKPGGSLRLSCAASGFTFSSYAMNWVRQAPGKGLEWVSSISGTSSYIYYADSVKGRFTIFRDNAKSSVYLQMNSLRVEDTAVYYCARDRWWGMVRRVFPTYPFDYWGQGTLVTVSS VL: DIQLTQSPSSVSASVGDRVTITCRASQGINNLLAWYQQKPGKAPKLLIYAASNLQSGVPSRFSGSGSGTDFTLTINSLQPEDFATYYCQQANSFPLTFGGGTKVEIKR |
| binds | RhD157.119D11 (Fab, V domains shown, Tested as Fab in E. coli periplasmic extract (VH on human gamma 1 CH1, vector Em351)) VH: EVQLVESGGGLVQPGGSLRLSCVASGFTFRSFDMNWVRQAPGKGLEWVSYINSRGSTIYYADSVKGRFTISRENAKNSLYLQMNSLRAEDTAVYYCARDLYGDYDPKSYYYYGMGVWGQGTTVTVSS VL: EIVLTQSPATLSLSPGERATLSCRASQSVSSYLAWYQQKRGQAPRLLIFNASNRATGIPARFSGSGSGTDFTLTISSLEPEDFAVYYCQQRSSWPPMYTFGQGTKLEIKR |
| binds | RhD195.127A07 (Fab, V domains shown, Tested as Fab in E. coli periplasmic extract (VH on human gamma 1 CH1, vector Em351)) VH: QVQLQESGPGLVKPSQTLSLTCTVSGGSISSGSYYWSWIRQPAGKGPEWIGRIYTSGSTNYNPSLKSRLTISVDTSKNQFSLKLTSVTAADTAVYYCARAPSYYDSSGYRYWYIDLWGRGTLVTVSS VL: DIQLTQSPSSLSASVGDRVTITCRASQNINRYLNWYQHKPGRAPELLIYAASTLRRGVPSRFSGSGSGTDFTLTISSLQPEDFATYYCQQSYSRGTFGQGTKVEIKR |
| binds | RhD194.126G10 (Fab, V domains shown, Tested as Fab in E. coli periplasmic extract (VH on human gamma 1 CH1, vector Em351)) VH: QVTLKESGPVLVKPTETLTLTCTVSGFSLSNARMGVSWIRQPPGKALEWLAHIFSNDEKSYSTSLKSRLTISKDTSKSQVVLTMTNMDPVDTATYYCARMRLTMVRGVITYYYYSMDVWGQGTTVTVSS VL: DIQMTQSPSSLSASVGDRVTITCRASQSISTYLNWYQQKPGKAPKLLIYAASTLQSGVPSRFSGSGSGTHFTLTISSLQREDFATYYCQQTYRTPTWTFGQGTKVEIKR |
| binds | RhD298.126E10 (Fab, V domains shown, Tested as Fab in E. coli periplasmic extract (VH on human gamma 1 CH1, vector Em351)) VH: QVQLVESGGGVVQPGRSLRLSCAASGFTFSSYGMHWVRQAPGKGLEWVAVIWYDGSNKYYADSVKGRFTISRDNSKNTLYLQMNSVRAEDTAVYYCARDLSTQRGYSRYYYVMDVWGQGTTVTVSS VL: DIQMTQSPSSLSASVGDRVTITCRASQSISTYLNWYQQKPGKAPKLLISAASSLQSGVPSRFSGSGSGTDFTLTISSLQREDYAAYYCQQSYSTPPYTFGQGTKLEIKR |
| binds | RhD198.127F10 (Fab, V domains shown, Tested as Fab in E. coli periplasmic extract (VH on human gamma 1 CH1, vector Em351)) VH: QVQLVQSGGGVVQPGKSLRLSCAASGFTFSTYGMHWVRQAPGKGLEWVAVIWYDGSNKYYADSVKGRFTISRDTSKNTLYLQMNSVRVEDTAVYYCARDLTTQRGYSRYHYVMDVWGQGTTVTVSS VL: DIQMTQSPSSLSASVGDRVTITCRASQSIGNYLNWYQQKPGKAPKLLISAASSLQSGVPSRFSGSGSGTDFTLTISSLHREDYATYYCQQSYSTPPYTFGQGTKLEIKR |
| binds | RhD196.126H11 (Fab, V domains shown, Tested as Fab in E. coli periplasmic extract (VH on human gamma 1 CH1, vector Em351)) VH: QVQLVESGGGVVQPGRSLRLSCAASGFTFSSYGMHWVRQAPGKGLEWVAVIWYDGSNKDYADSVKGRFTISRDNSKNTLYLQMNSVRAEDTAVYYCARELSTQRGYSRYHYVMDVWGQGTTVTVSS VL: DIQMTQSPSSLSASVGDRVTITCRASQSISTYLNWYQQKPGKAPKLLIYAASTLQSGVPSRFSGSGSGTHFTLTISSLQREDFATYYCQQSYGTPTWTFGQGTKVEIKR |
| binds | RhD193.126G05 (Fab, V domains shown, Tested as Fab in E. coli periplasmic extract (VH on human gamma 1 CH1, vector Em351)) VH: QVQLVETGGGVVQPGRSLRLSCAASGFTFSSYGMHWVRQAPGKGLEWVAVIWYDGSNKDYADPVKGRFTISRDNSKNTLYLQMNSLRAEDTAVYYCAREIASRGYSRYLYYFDSWGQGTLVTVSS VL: DIQMTQSPSSLSASVGDRVTITCRASQSISSYLNWYQQNPGKAPKLLIYGASNLQSGVPSRFSGSGSGTDFTLTISSLQPEDFATYYCQQSYSTLALTFGGGTKVEIKR |
| binds | RhD297.126E06 (Fab, V domains shown, Tested as Fab in E. coli periplasmic extract (VH on human gamma 1 CH1, vector Em351)) VH: QVQLVESGGGVVQPGRSLRLSCAASGFTFRTYGMHWVRQAPGKGLEWVAVIWYDGSNKDYADSVKGRFTISRDNSKNTLHLQMNSLRAEDTAVYYCAREIASRGYSRYLYYLDFWGQGTLVTVSS VL: DIQLTQSPSSLSASVGDRVTITCRASQSISSYLNWYQQNPGKAPKLLIYGASNLQSGVPSRFSGSGSGTDFTLTISSLQPEDFATYYCQQSYSTLALTFGGGTKVEIKR |
| binds | RhD190.119F05 (Fab, V domains shown, Tested as Fab in E. coli periplasmic extract (VH on human gamma 1 CH1, vector Em351)) VH: EVQLVETGGGVVQPGRSLRLSCAASGFSFSNYGMHWVRQAPGKGLEWVAVIWFDGSIKYYVDSVKGRFTISRDNSKNTLYLQMNSLRAEETAIYFCARENSVLVPGTIRRRYYLDYWGQGTLVTVSS VL: DIQLTQSPSSLSASVGDRVTITCRASQSISSYLNWYQQKPGEAPKLLIYVASTLQSGAPSRFSGSGSGTDYTLTISSLQPEDSATFYCQQTYSPPYTFGQGTKLEIKR |
| binds | RhD197.127A08 (Fab, V domains shown, Tested as Fab in E. coli periplasmic extract (VH on human gamma 1 CH1, vector Em351); Lambda clone) VH: QVQLVESGGGVVQPGRSLRLSCAASGFTFSNYGMHWVRQAPGKGLEWVAVIWFDGSNRDYADSVKGRFTISRDNSKKTLYLQMNSLRAEDTAVYYCATELARGRLRALEYWGQGTLVTVSS VL: QTVVTQEPSLTVSPGGTVTLTCASSTGAVTTGYYPNWFQQKPGQAPRALIYSTSKKHSWTPARFSGSLLGGKAALTLSGVQPEDEAEYYCLLFYGGAQLGVFGGGTKLTVLG |
| binds | RhD207.127A11 (Fab, V domains shown, Tested as Fab in E. coli periplasmic extract (VH on human gamma 1 CH1, vector Em351)) VH: EVQLVESGGGVVQPGRSLRLSCAASGFTFSSYGMHWVRQAPGKGLEWVAVIWYDGSNKDYVDSVKGRFTISRDNSKNTLYLQMNSLRAEDTAVYYCARELAKGRLRDLDHWGQGTLVTVSS VL: QAVVTQEPSLTVSPGGTVTLTCASSTGAVTTGYYPNWFQQKPGQAPRALVHSTSKKHSWTPARFSGSLLGGKAALTLSGVQPEDEAEYYCLLFYGGAQLGVFGGGTKLTVLG |
| binds | RhD191.119E08 (Fab, V domains shown, Tested as Fab in E. coli periplasmic extract (VH on human gamma 1 CH1, vector Em351)) VH: QVQLVESGGDLVQPGGSLRLSCAASGFTFRSYEMNWVRQAPGKGLEWVSYINSRGNTKYYADSVKGRFTISRDNAKKSLYLQMSSLRAEDTAVYYCARNLFGDYDLKSYYYNAMDVWGQGTLVTVSS VL: EIVLTQSPGTLSSSPGERATLSCRASQSVTSRYLAWYQQKHGQAPRLLIYGTSTRATGIPDRFSGGGSQTDFTLTISRLEPEDFAVYYCQHYDDSISTYIFGPGTELEIKR |
